Reference: patent US20210388337

Experiments:
Test in all cases: stopped-flow tryptophan fluorescence, avidin 0.5 µM, biotin-protein 5.0 µM
Avidin-pCBMA109, P02701 = molecular target: Avidin-pCBMA109, P02701
Avidin-pCBMA121, P02701 = molecular target: Avidin-pCBMA121, P02701
Avidin-pCBMA152, P02701 = molecular target: Avidin-pCBMA152, P02701
Avidin-pCBMA170, P02701 = molecular target: Avidin-pCBMA170, P02701
Avidin-pCBMA182, P02701 = molecular target: Avidin-pCBMA182, P02701
Avidin-pCBMA232, P02701 = molecular target: Avidin-pCBMA232, P02701
Sequence of Avidin-pCBMA232, P02701 (P02701 25-152): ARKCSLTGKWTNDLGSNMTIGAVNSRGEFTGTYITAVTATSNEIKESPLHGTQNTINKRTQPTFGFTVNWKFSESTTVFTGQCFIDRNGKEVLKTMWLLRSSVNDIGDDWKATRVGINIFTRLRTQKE

Avidin-pCBMA56, P02701 = molecular target: Avidin-pCBMA56, P02701
Sequence of Avidin-pCBMA56, P02701 (P02701 25-152): as above

Avidin-pCBMA58, P02701 = molecular target: Avidin-pCBMA58, P02701
Sequence of Avidin-pCBMA58, P02701 (P02701 25-152): as above

Native avidin, P02701 = molecular target: Native avidin, P02701
Sequence of Native avidin, P02701 (P02701 25-152): as above

Sequence of Avidin-pCBMA152, P02701 (P02701 25-152): as above
Sequence of Avidin-pCBMA170, P02701 (P02701 25-152): as above
Sequence of Avidin-pCBMA121, P02701 (P02701 25-152): as above
Sequence of Avidin-pCBMA182, P02701 (P02701 25-152): as above
Sequence of Avidin-pCBMA109, P02701 (P02701 25-152): as above

B1: Biotin-HRP (protein)
chain: QLTPTFYDNSCPNVSNIVRDTIVNELRSDPRIAASILRLHFHDCFVNGCDASILLDNTTSFRTEKDAFGNANSARGFPVIDRMKAAVESACPRTVSCADLLTIAAQQSVTLAGGPSWRVPLGRRDSLQAFLDLANANLPAPFFTLPQLKDSFRNVGLNRSSDLVALSGGHTFGKNQCRFIMDRLYNFSNTGLPDPTLNTTYLQTLRGLCPLNGNLSALVDFDLRTPTIFDNKYYVNLEEQKGLIQSDQELFSSPNATDTIPLVRSFANSTQTFFNAFVEAMDRMGNITPLTGTQGQIRLNCRVVNSNS
Work on B1 yielded a k (kobs, observed first-order rate constant) (Avidin-pCBMA109, P02701) of 0.026 s⁻¹, a k (kobs, observed first-order rate constant) (Avidin-pCBMA121, P02701) of 0.218 s⁻¹ and a k (kobs, observed first-order rate constant) (Avidin-pCBMA152, P02701) of 0.025 s⁻¹. The k (kobs, observed first-order rate constant) (Avidin-pCBMA170, P02701) was 0.209 s⁻¹, the k (kobs, observed first-order rate constant) (Avidin-pCBMA182, P02701) was 0.025 s⁻¹ and the k (kobs, observed first-order rate constant) (Avidin-pCBMA232, P02701) was 0.196 s⁻¹. It also gave a k (kobs, observed first-order rate constant) (Avidin-pCBMA56, P02701) of 0.261 s⁻¹, a k (kobs, observed first-order rate constant) (Avidin-pCBMA58, P02701) of 0.028 s⁻¹ and a k (kobs, observed first-order rate constant) (Native avidin, P02701) of 5.03 s⁻¹.
